Assay results from PMC3099712 (The Journal of Biological Chemistry, 2011).
Values belong to the binder of their own block, whether it stands above or below them.

Tests used:
[1] = target: the molecule itself; assay: SDS-PAGE under reducing and non-reducing conditions
[2] = target: T1, mouse IGFLR1-Fc (extracellular domain of mouse IGFLR1 fused to human IgG1 Fc) (mouse, UniProt Q3U4N7 21-158); assay: SPR
T1 sequence (looked up): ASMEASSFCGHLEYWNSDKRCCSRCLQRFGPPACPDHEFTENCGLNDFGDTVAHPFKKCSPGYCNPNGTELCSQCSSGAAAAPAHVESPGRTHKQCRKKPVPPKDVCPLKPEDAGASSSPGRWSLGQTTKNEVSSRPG

B1: FLAG-IGFL1 (human insulin growth factor-like family member 1) (ligand)
chain: GAPVAPMTPYLMLCQPHKRCGDKFYDPLQHCCYDDAVVPLARTQTCGNCTFRVCFEQCCPWTFMVKLINQNCDSARTSDDRLCRSVS
binding result [1]: binds

Kd [2]: 0.15 nM
koff [2]: 0.000157 s⁻¹
kon [2]: 1.02e+06 M⁻¹ s⁻¹
B2: FLAG-mIGFL (mouse insulin growth factor-like protein) (ligand)
chain: ARKISTFSGPGSWPCNPKCDGRTYNPSEECCVHDTILPFKRINLCGPSCTYRPCFELCCPESYSPKKKFIVKLKVHGERSHCSSSPISRNCKSNKIFHGEDIEDNQLSLRKKSGDQP
binding result [1]: binds
